Test results published in patent US20040120954A1, “Regulation of mt1-mmp activity” (priority 2000, published 2004).

Columns and labels:
[1] = biological target: T1, MT1-F (Homo sapiens, UniProt P50281); test: 125I-labeled TIMP-2 binding assay on transfected CHO-K1 cells
T1 construct: expressed in transfected cells
Description: FIG. 12: The efficacies of MT1PEX-F on the proteolytic activity and TIMP-2 binding ability of MT1-F expressed on a cell surface are shown. As is shown in FIG. 12 through FIG. 14, CHO-K1 cells were transfected with the expression vectors for MT1-F, MT1PEX-F or MT1Cat-F, or a vector alone (Mock). The cells were then treated with trypsin, and seeded on DQ™-gelatin coated cover slips for proteolytic activity tests (FIG. 13) and in 24-well plates for TIMP-2 binding assays (FIG. 12) and for proMMP-2 activation (FIG. 14). Results are all from the same transfection experiment. […]
Next, to determine if MT1PEX-F affects the catalytic activity of MT1-MMP on the cell surface or not, tests for gelatin degrading activity and binding capacity to TIMP-2 were conducted using cells transfected in the same incubator. […] Transfected cells on the DQ™ gelatin-coated cover slip as shown in FIG. 13 were incubated in a medium at 37° C. for 18 hrs, and the generated fluorescence was analyzed using confocal microscopy. […] MT1-MMP specific binding was calculated by subtracting the datum obtained in the presence of BB-94 (50 μM) from each datum derived from the corresponding experiments. […] DQ™ gelatin is a fluorescence-quenched gelatin, which fluoresces upon proteolytic cleavage. […]

[2] = biological target: T2, MT1-F/NGFR (Homo sapiens, UniProt P04629+P50281); test: Dimer formation of MT1-F/NGFR chimera on the cell surface (anti-phosphotyrosine PY20 Western blotting, co-transfected COS1 cells); format: cell-based; conditions: for competition in the dimer formation of MT1-F/NGFR (PY20 band intensity): COS1 cells co-transfected with MT1-F/NGFR and the construct (FIG. 23)
T2 construct: expressed in transfected cells; host or cells: COS1 cells (pSG5 vector)
Description: Cell lysate samples were subjected to separation on SDS-PAGE, followed by a transfer of the proteins in the gel to nitrocellulose membranes (Hybond-ECL, Amersham Pharmacia Biotech, Inc.). After blocking with a solution of 10% skim milk dissolved in TBS (20 mM Tris-HCl buffer, pH 7.5 containing 150 mM NaCl), the membrane was exposed to a monoclonal anti-FLAG M2 antibody (3 μg/ml) for detecting FLAG-tagged MT1-MMP and its mutants. In order to visualize the immunoreactive bands, the membrane was further exposed to an alkaline phosphatase-conjugated goat anti-mouse IgG antibody. For the purpose of detecting a phosphotyrosine residue in chimera proteins, a monoclonal anti-phosphotyrosine antibody, PY20 (1 μg/ml) was used.
Cell lysates were subjected to SDS/PAGE, followed by a transfer of the proteins to nitrocellulose membranes (Hybond-ECL, Amersham Pharmacia Biotech, Inc.). MT1-MMP, MT1Cat, MT1-MT4PEX and MT1-F/NGFR were detected with a polyclonal anti-CAT antibody (1:2000), while MT1-MMP, MT1PEX and MT1-F/NGFR with an anti-PEX antibody (222-1D8, 0.5 μg/ml). FLAG-tagged MT1-MMP and its mutants were detected with an anti-FLAG M2 antibody (3 μg/ml). Chimera proteins containing a phosphotyrosine residue were detected with a monoclonal mouse anti-phosphotyrosine antibody, PY20 (ICN Biochemicals, Inc., OH, USA; 1 μg/ml). Immunoreactive bands were visualized with an alkaline phosphatase-conjugated goat anti-mouse IgG or anti-rabbit IgG (Sigma).
NGFR forms a dimer through binding to its ligand. Subsequently, tyrosine residues in the cytoplasmic domain are trans-phosphorylated by its tyrosine kinase (Jing, S. et al., Neuron, 9: 1067-1079, 1992; Lemmon, M. A. et al., Trends Biochem. Sci., 19: 459-463, 1994).
By utilizing the above principle, a chimeric protein is first constructed consisting of the ectodomain of MT1-MMP and the transmembrane (TM) and cytoplasmic (CP) domains of NGFR (FIG. 8) in order to test for direct complex formation. When the ectodomain of this chimeric protein forms a homophilic complex in a similar manner, tyrosine residues in the cytoplasmic domain will be phosphorylated.
It is investigated whether co-expression of MT1PEX-F and MT1-F competes in the dimer formation of MT1-F/NGFR or not. For the test, the expression plasmids for MT1-F/NGFR and MT1PEX-F were co-transfected into COS1 cells.
Next, the expression plasmids for MT1-F/NGFR and FLAG-tagged MT1PEX (MT1PEX-F), MT1Cat (MT1Cat-F), or MT1-F were co-transfected to investigate if the dimer formation of the chimera could be disrupted or not.

[3] = system: MT1-MMP; test: In situ gelatin degrading assay (DQ gelatin or Alexa488-conjugated gelatin); format: cell-based, human; conditions: DQ gelatin; CHO-K1 (FIG. 13) or COS1 cells (FIG. 22)
Description: Two different in situ gelatin degrading assays were performed. One used DQ™ gelatin (Molecular Probes, Inc., OR, USA). DQ gelatin is a fluorescence-quenched gelatin substrate, and will fluoresce upon proteolytic cleavage. Glass cover slips were coated with 5% DQ™ gelatin in a 10 mg/ml unlabeled gelatin solution, and dried. Transfected cells were cultured on the cover slip in a humidified chamber for 16 hrs. The cells were then fixed with 3% para-formaldehyde and the degraded areas were visualized as those showing fluorescence.
The other assay used Alexa488-conjugated gelatin made with an Alexa488-labeling kit (Molecular Probes). The bottom surfaces of 4-well chamber slides (Nunc) were coated with Alexa488-conjugated gelatin according to the method of Yana, I. and Weiss, S. J., Mol. Biol. Cell, 11, 2387-2401, 2000. Transfected COS1 cells were cultured in the chamber slides for 16 hrs in a humidified culture incubator. The cells were then fixed with 3% para-formaldehyde in PBS, and the degraded area was analyzed under a fluorescence microscope. The degraded area was visualized as a dark, non-fluorescent area. Fluorescence images were analyzed using confocal microscopy (BioRad).
Next, to determine if MT1PEX-F affects the catalytic activity of MT1-MMP on the cell surface or not, tests for gelatin degrading activity and binding capacity to TIMP-2 were conducted using cells transfected in the same incubator. As shown in FIGS. 12 through 14, CHO-K1 cells were transfected with an expression vector for MT1-F, MT1-F/MT1PEX-F or MT1Cat-F, or a vector alone (Mock). The cells were then treated with trypsin, and separately seeded to: DQ™ gelatin-coated cover slips for testing the proteolytic activity (FIG. 13); and 24-well plates for TIMP-2 binding assay (FIG. 12) and for the activation of proMMP-2 (FIG. 14). Transfected cells on the DQ™ gelatin-coated cover slip as shown in FIG. 13 were incubated in a medium at 37° C. for 18 hrs, and the generated fluorescence was analyzed using confocal microscopy. Transfected cells on the 24-well plate as shown in FIG. 12 were incubated with 25 nM ^125I-labeled TIMP-2 in the presence or absence of BB-94 (50 μM) at 0° C. for 1 hr. MT1-MMP specific binding was calculated by subtracting the datum obtained in the presence of BB-94 (50 μM) from each datum derived from the corresponding experiments. Identically transfected cells on the 24-well plate as shown in FIG. 14 were subjected to the reaction with purified proMMP-2 in a serum-free medium at 37° C. for 18 hrs. The cells and culture supernatants were respectively subjected to Western blotting analysis using a monoclonal anti-FLAG M2 antibody, and gelatin zymography analysis. […] DQ™ gelatin is a fluorescence-quenched gelatin, which fluoresces upon proteolytic cleavage. […]

Row | Substance | TIMP-2 binding capacity as compared to the cells bearing MT1-F ([1]; CHO-K1 cells expressing the mutant (FIG. 12)) | competition in the dimer formation of MT1-F/NGFR (PY20 band intensity) [2] | gelatin degrading (proteolytic) activity of cells expressing the mutant [3] | decrease in TIMP-2 binding on the cell surface as compared with MT1-F alone ([1]; CHO-K1 cells co-transfected with MT1-F, 25 nM 125I-TIMP-2, 0° C., 1 hr, BB-94 (50 μM) background subtracted (FIG. 12)) [%] | decrease of phosphotyrosine signal ([2]; COS1 cells co-expressing MT1-F/NGFR and Rac1DA (FIG. 24)) [%] | phosphorylation of MT1-F/NGFR ([2]; COS1 cells co-transfected with MT1-F/NGFR and MT1PEX-F at indicated DNA ratio (FIG. 10)) | inhibition of the phosphorylation of MT1-F/NGFR ([2]; COS1 cells co-transfected with MT1-F/NGFR, increasing levels of MT1PEX-F expression, PY20 band intensity (FIG. 10)) [%]
1 | MT1Cat-F: PEX-deleted FLAG-tagged MT1-MMP (Δ Ile318-Gly535) | equivalent TIMP-2 binding capacity | did not decrease the intensity of the band | exhibited the gelatin degrading activity |  |  |  | 
2 | MT1PEX-F: Catalytic domain-deleted FLAG-tagged MT1-MMP (Δ Tyr112-Pro312), expressed by transfection |  | effectively competed |  | 37 | 43 | inhibited depending on the expression level | ≥ 90
